Source: US7074905
One block for each substance: values may come before it.

Key:
[1] = target: soluble sc-DR2/MBP-Cκ fusion molecule (human kappa constant domain) from pDRHK-transfected CHO cells (human); assay: sandwich ELISA, anti-human kappa capture, L243-HRP probe; cell line CHOA5
[2] = target: soluble sc-DR2/MBP-Cκ fusion molecule (human kappa constant domain) from pDRHK-transfected CHO cells (human); assay: sandwich ELISA, L227 capture, L243-HRP probe; cell line CHOA5
[3] = target: soluble sc-DR2/MBP-Cκ fusion molecule (human kappa constant domain) from pDRHK-transfected CHO cells (human); assay: sandwich ELISA, anti-human kappa capture, L243-HRP probe; cell line CHOE 12
[4] = target: soluble sc-DR2/MBP-Cκ fusion molecule (human kappa constant domain) from pDRHK-transfected CHO cells (human); assay: sandwich ELISA, L227 capture, L243-HRP probe; cell line CHOE 12
[5] = target: soluble sc-IA^d/OVA produced in SF9 insect cells (baculovirus) (murine); assay: cell-based or functional assay
[6] = target: sc-IA^d/gD (sc-IA^d fusion protein carrying the gD 246-261 peptide), from insect cells (HSV-1; murine); assay: cell-based or functional assay
[7] = target: sc-IA^d/OVA-Cκ fusion molecule (sc-IA^d/OVA fused to the mouse kappa constant domain), from pIADK-transfected NSO cells (murine; mouse); assay: cell-based or functional assay
[8] = target: soluble sc-IA^d/OVA secreted by SCE1-transfected NSO cells (murine); assay: IA^d-specific sandwich ELISA, M5/114 capture, biotin-AMS-32.1 probe; undiluted culture supernatant of E10 (SCE1 transfectant)
[9] = target: soluble sc-IA^d/OVA produced in SF9 insect cells (baculovirus) (murine); assay: IA^d-specific sandwich ELISA, M5/114 capture, biotin-AMS-32.1 probe; sc-IA^d/OVA from insect cell culture (positive control)
[10] = target: soluble sc-IA^d/OVA secreted by SCE1-transfected NSO cells (murine); assay: IA^d-specific sandwich ELISA, M5/114 capture, biotin-AMS-32.1 probe; undiluted culture supernatant of E11 (SCE1 transfectant)

soluble sc-DR2/MBP-Cκ fusion molecule (human kappa constant domain) from pDRHK-transfected CHO cells (human), sequence (P02686 other isoform, or with tags, fused parts or gaps): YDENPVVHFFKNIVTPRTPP

ELISA Readings (Absorbance) [1]: 1.45
ELISA Readings (Absorbance) [2]: 0.434
ELISA Readings (Absorbance) [3]: 1.06
ELISA Readings (Absorbance) [4]: 0.245
Substance: L243 mAb (ATCC HB-55) (antibody)

Substance: T-cell receptor of the murine T-cell hybridoma DO11.10 (TCR)
DO11.10 IL-2 Released (pg/well) [5]: 528 pg/well
DO11.10 IL-2 Released (pg/well) [6]: 0 pg/well
DO11.10 IL-2 Released (pg/well) [7]: 500 pg/well

Absorbance [8]: 0.781
Absorbance [9]: 2.44
Absorbance [10]: 0.96
Substance: anti-IA^d mAb AMS-32.1 (PharMingen) (antibody)
